The values that follow come from patent US10544215B2, “1-(Chloromethyl)-2,3-dihydro-1H-benzo[e]indole dimer antibody-drug conjugate compounds, and methods of use and treatment” (priority 2013, dated 2020).

First the molecules themselves.
B1: ADC 125: Thio Hu Anti-CD33 15G15.33 HC A118C-MC-MMED-(CBI dimer phos); linker-CBI intermediate 57 (conjugate)
VH: QVQLVQSGAEVKKPGSSVKVSCKASGGIFSNHAISWVRQAPGQGLEWMGGIIPIFGTANYAQKFQGRVTITADESTSTAFMELSSLRSEDTAVYYCAREWADVFDIWGQGTMVTVSS
VL: EIVLTQSPLSLPVTPGEPASISCRSSQSLLHSNGYNYLDWYLQKPGQSPQLLIYLGVNSVSGVPDRFSGSGSGTDFTLKISRVEAEDVGVYYCMQALQTPWTFGQGTKVEIK
B2: ADC 129: Thio Hu Anti-CD33 15G15.33 HC A118C-MC-ED-(CBI dimer DVB phos); linker-CBI intermediate 68 (conjugate)
VH: B1 VH
VL: B1 VL
B3: ADC 127: Thio Hu Anti-CD33 15G15.33 HC A118C-MC-ED-(CBI dimer DVB diphos); linker-CBI intermediate 66 (conjugate)
VH: B1 VH
VL: B1 VL

The subject of this experiment is EOL-1. Nature of the experiment: EOL-1 in vitro cell viability (CellTiter-Glo cell proliferation assay). The class given is cell-based, human. The settings on record: at 3 days versus ADC concentrations (μg/ml). The text has this:
The CellTiter-Glo® Luminescent Cell Viability Assay is a commercially available (Promega Corp., Madison, Wis.), homogeneous assay method based on the recombinant expression of Coleoptera luciferase (U.S. Pat. Nos. 5,583,024; 5,674,713; 5,700,670). This cell proliferation assay determines the number of viable cells in culture based on quantitation of the ATP present, an indicator of metabolically active cells (Crouch et al (1993) J. Immunol. Meth. 160:81-88; U.S. Pat. No. 6,602,677). The CellTiter-Glo® Assay was conducted in 96 well format, making it amenable to automated high-throughput screening (HTS) (Cree et al (1995) AntiCancer Drugs 6:398-404). The homogeneous assay procedure involves adding the single reagent (CellTiter-Glo® Reagent) directly to cells cultured in serum-supplemented medium. Cell washing, removal of medium and multiple pipetting steps are not required. The system detects as few as 15 cells/well in a 384-well format in 10 minutes after adding reagent and mixing. The cells may be treated continuously with ADC, or they may be treated and separated from ADC.
The homogeneous “add-mix-measure” format results in cell lysis and generation of a luminescent signal proportional to the amount of ATP present. The amount of ATP is directly proportional to the number of cells present in culture. […] Viable cells are reflected in relative luminescence units (RLU). […]
Efficacy of ADC was measured by a cell proliferation assay employing the following protocol ([…] GLO™ Luminescent Cell Viability Assay, Promega Corp. Technical Bulletin TB288; Mendoza et al (2002) Cancer Res. 62:5485-5488): • 1. […] The plate was incubated at room temperature for 10 minutes to stabilize the luminescence signal. • 8. Luminescence was recorded and reported in graphs as RLU=relative luminescence units. • Data are plotted as the mean of luminescence for each set of replicates, with standard deviation error bars. […]
Take B1: the “cell-killing activity (EOL-1 in vitro cell viability)” value is listed as “modest dose response cell-killing activity”.
As for B2, the entry is “potent, dose responsive cell-killing activity”; as for B3, “potent, dose responsive cell-killing activity”.
